Molecular target: And-1 HMG domain (UniProt O75717)
Experiment: FLAG-SepB IP, GST-HMG blot
Conditions: reference: wild-type SepB; sites T826

Sequence of UniProt O75717 (O75717 330-984 T826A): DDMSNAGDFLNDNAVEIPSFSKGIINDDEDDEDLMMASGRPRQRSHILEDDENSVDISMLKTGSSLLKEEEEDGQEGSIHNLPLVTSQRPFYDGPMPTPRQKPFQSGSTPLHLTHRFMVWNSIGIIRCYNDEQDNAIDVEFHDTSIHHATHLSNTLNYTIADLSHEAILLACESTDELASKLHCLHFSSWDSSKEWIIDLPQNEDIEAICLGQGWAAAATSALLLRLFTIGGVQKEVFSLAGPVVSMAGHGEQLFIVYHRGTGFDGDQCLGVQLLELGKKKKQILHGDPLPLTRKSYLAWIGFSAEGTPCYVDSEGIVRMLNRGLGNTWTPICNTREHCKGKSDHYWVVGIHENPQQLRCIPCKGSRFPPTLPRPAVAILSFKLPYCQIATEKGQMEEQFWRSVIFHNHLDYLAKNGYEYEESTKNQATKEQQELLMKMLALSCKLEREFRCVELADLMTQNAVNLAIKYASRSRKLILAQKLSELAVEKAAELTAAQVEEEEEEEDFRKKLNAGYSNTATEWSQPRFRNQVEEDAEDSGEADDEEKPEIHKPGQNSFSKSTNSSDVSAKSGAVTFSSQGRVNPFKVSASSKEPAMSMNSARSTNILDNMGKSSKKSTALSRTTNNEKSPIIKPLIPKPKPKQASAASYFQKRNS

binding against the reference: stronger
Substance: And-1 SepB domain, 330-984 (from UniProt O75717) SepB T826A

— PMC9481708
